For assay [1], the target named is Recombinant LBD of GPIbα (residues 1-290), WT (human) (UniProt P07359). As to the kind of experiment: VWF:NCo ELISA, immobilised GPIbα-LBD, 250 nM 6D12; activity/antigen ratio. Background: ELISA stands for enzyme-linked immunosorbent assay.
The target is the same in assay [2]. Briefly: VWF:GPIbNab ELISA on LBD-WT with activating nanobodies; pdVWF as the reference.
Assay [3] has the same target. As to the kind of experiment: activity/antigen ratio; VWF:GPIbR ELISA on LBD-WT with 1.0 mg/mL ristocetin.
Assay [4] shares this target. As to the kind of experiment: activity/antigen ratio; VWF:GPIbNab ELISA on LBD-WT with nanobody 6C4, pdVWF as reference.
The target is the same in assay [5]. As to the kind of experiment: activity/antigen ratio; VWF:GPIbNab ELISA on LBD-WT with nanobody 6C11, pdVWF as reference.
Assay [6] has the same target. As to the kind of experiment: activity/antigen ratio; VWF:GPIbNab ELISA on LBD-WT with nanobody 6D12, pdVWF as reference.
Assay [7] shares this target. Briefly: VWF:GPIbNab ELISA on LBD-WT with 6C11; pdVWF as the reference.
The target in assay [8] is Recombinant LBD of GPIbα (residues 1-290), D235Y/M239V (human) (UniProt P07359). As to the kind of experiment: activity/antigen ratio; VWF:GPIbM ELISA on LBD-D235Y/M239V without activator.
Recombinant LBD of GPIbα (residues 1-290), D235Y/M239V (human), sequence (P07359 17-306 D251Y/M255V limits assumed, form in doubt): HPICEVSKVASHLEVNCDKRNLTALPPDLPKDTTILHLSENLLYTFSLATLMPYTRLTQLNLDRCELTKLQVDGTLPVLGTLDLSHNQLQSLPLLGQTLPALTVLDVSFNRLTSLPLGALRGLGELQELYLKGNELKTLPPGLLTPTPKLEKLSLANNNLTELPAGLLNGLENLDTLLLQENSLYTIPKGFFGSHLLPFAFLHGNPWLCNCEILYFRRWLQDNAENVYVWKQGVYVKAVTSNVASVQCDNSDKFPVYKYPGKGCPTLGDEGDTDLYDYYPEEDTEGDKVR
For assay [9], the target named is Recombinant LBD of GPIbα (residues 1-290), WT (human) (UniProt P07359). Briefly: VWF:GPIbNab ELISA on LBD-WT with 6C4 or 6D12 (not said which gives which end); pdVWF as the reference.

Recombinant LBD of GPIbα (residues 1-290), WT (human), sequence (P07359 17-306 limits assumed, form in doubt): as the sequence (P07359 17-306 D251Y/M255V limits assumed, form in doubt) above, with Y235D, V239M counted along it

Turning to “Humate P (from UniProt P04275 764-2813) (ligand)”, the VWF:NCo/VWF:Ag ratio in assay [1] was found to be 1.2.
Consider “Plasma-derived VWF (pdVWF, Alphanate) (from UniProt P04275 764-2813) (ligand)”, for which the VWF:NCo/VWF:Ag ratio in assay [1] is 1. Besides, the VWF:GPIbNab/VWF:Ag ratio in assay [2] was 1. Besides, the VWF:GPIbR/VWF:Ag in assay [3] turned out to be 0.84. In addition, the VWF:GPIbNab6C4/VWF:Ag in assay [4] is 1.05. In addition, the VWF:GPIbNab6C11/VWF:Ag in [5] came out at 1.01. Moreover, in [6], the VWF:GPIbNab6D12/VWF:Ag was determined as 0.93.
Consider “recombinant VWF (rVWF, Vonvendi) (from UniProt P04275 764-2813) (ligand)”, for which the VWF:GPIbNab/VWF:Ag ratio in [7] is 2.26; in [9], 1.2 to 1.4. The VWF:NCo/VWF:Ag ratio in assay [1] is 1.9. Besides, the VWF:GPIbR/VWF:Ag in [3] amounted to 1.25. Besides, the VWF:GPIbM/VWF:Ag in [8] is 2.1. In addition, the VWF:GPIbNab6C4/VWF:Ag in assay [4] came out at 1.31. Moreover, the VWF:GPIbNab6D12/VWF:Ag in [6] was 1.26.

(Values after patent publication US20250298041A1.)
